The labels stand for the following.
B1: M0037-C03: Fab that binds human MMP-14; DNA LV SEQ ID NO: 40, HV SEQ ID NO: 41 (antibody, V domains shown)
VL: QDIQMTQSPSSVSASVGDRVTITCRASQGISSWLAWYQQKPGKAPKLLIYAASSLQSGVPSRFSGSGSGTDFTLTISSLQPEDFATYYCQQANSFPFVTFGQGTKLEIK
VH: EVQLLESGGGLVQPGGSLRLSCAASGFTFSMYLMIWVRQAPGKGLEWVSVISSSGGQTKYADSVKGRFTISRDNSKNTLYLQMNSLRAEDTAVYYCARTDLTGYSAGAFDIWGQGTMVTVSS
modifications: Synthetically generated oligonucleotide
B2: M0038-C05: Fab that binds human MMP-14; DNA LV SEQ ID NO: 50, HV SEQ ID NO: 51 (antibody, V domains shown)
VL: QDIQMTQSPSSLSASVGDRVTITCRASQSISSYLNWYQQKPGKAPKLLIYAASSLQSGVPSRFSGSGSGTDFTLTISRLEPEDFAVYYCQQYGSSPTFGQGTKVEIK
VH: EVQLLESGGGLVQPGGSLRLSCAASGFTFSSYIMVWVRQAPGKGLEWVSVIYPSGGPTYYADSVKGRFTISRDNSKNTLYLQMNSLRAEDTAVYYCARDPRLERFYFDYWGQGTLVTVSS
modifications: Synthetically generated oligonucleotide
B3: M0030-A04: Fab that binds human MMP-14; DNA LV SEQ ID NO: 6, HV SEQ ID NO: 7 (antibody, V domains shown)
VH: EVQLLESGGGLVQPGGSLRLSCAASGFTFSVYEMNWVRQAPGKGLEWVSSIYSSGGRTDYADSVKGRFTISRDNSKNTLYLQMNSLRAEDTAVYYCAREAHYYDSSGPPDYWGQGTLVTVSS
VL: QSELTQPPSASGTPGQRVTISCSGSSSNIGINFVTWYQQLPGTAPKLLIYTNNQRPSGVPDRFSSSKSGASASLAISGLQSEDEAAYYCAAWDDNLNGPVFGGGTKLTVL
modifications: Synthetically generated oligonucleotide
B4: M0037-B10: Fab that binds human MMP-14; DNA LV SEQ ID NO: 38, HV SEQ ID NO: 39 (antibody, V domains shown)
VH: EVQLLESGGGLVQPGGSLRLSCAASGFTFSVYYMGWVRQAPGKGLEWVSYIGSSGGWTEYADSVKGRFTISRDNSKNTLYLQMNSLRAEDTAVYYCARDLSAVAGLGGAFDIWGQGTMVTVSS
VL: QDIQMTQSPSSLSASVGDRVAITCRASQSIDTYLNWYQQKPGKAPKLLIYAASKLEDGVPSRFSGSGTGTDFTLTIRSLQPEDFASYFCQQSYSSPGITFGPGTKVEIK
B5: M0038-B06: Fab that binds human MMP-14; DNA LV SEQ ID NO: 48, HV SEQ ID NO: 49 (antibody, V domains shown)
VL: QDIQMTQSPSSLSASVGDRVTITCRASQSISSYLNWYQQKPGKAPKLLIYAASSLQSGVPSRFRGSGSGTDFSLTISSLQPEDFATYYCQQTYSGLPTFGGGTVVEIK
VH: EVQLLESGGGLVQPGGSLRLSCAASGFTFSSYVMGWVRQAPGKGLEWVSVISPSGGWTTYADSVKGRFTISRDNSKNTLYLQMNSLRAEDTATYYCASRGVVTNLDYWGQGTLVTVSS
modifications: Synthetically generated oligonucleotide
B6: M0037-A08: Fab that binds human MMP-14; DNA LV SEQ ID NO: 36, HV SEQ ID NO: 37 (antibody, V domains shown)
VL: QDIQMTQSPSSVSASVGDRVTITCRASQGVSSYLAWYQQKPGKAPKLLIYGASTLQNGVPSRFSGSGSGTDFTLTISSLQPEDFATYHCQQVHSFPPTFGQGTKVEIK
VH: EVQLLESGGGLVQPGGSLRLSCAASGFTFSHYMMMWVRQAPGKGLEWVSGISSSGGRTGYADSVKGRFTISRDNSKNTLYLQMNSLRAEDTAVYYCASFGNSGSYSWRAFDIWGQGTTVTVSS
modifications: Synthetically generated oligonucleotide
B7: M0035-F02: Fab that binds human MMP-14; DNA LV SEQ ID NO: 28, HV SEQ ID NO: 29 (antibody, V domains shown)
VH: EVQLLESGGGLVQPGGSLRLSCAASGFTFSFYRMEWVRQAPGKGLEWVSSIVPSGGFTRYADSVKGRFTISRDNSKNTLYLQMNSLRAEDTAVYYCARFHVLRYFDWFGNTQDTDAFDIWGQGTLVTVSS
VL: QDIQMTQSPATLSLSPGERATLSCRASQSVSNYLAWYQQKPGQAPRLLIYDASNRATGIPARFSGSGSGTDFTLTISSLEPEDFAVYYCQQRSNWPLTFGGGTKVEIK
modifications: Synthetically generated oligonucleotide
B8: M0036-D02: Fab that binds human MMP-14; DNA LV SEQ ID NO: 30, HV SEQ ID NO: 31 (antibody, V domains shown)
VL: B7 VL with R19K, S29T, S31Y, S53F, S93G, L97R, G101Q
VH: EVQLLESGGGLVQPGGSLRLSCAASGFTFSFYKMTWVRQAPGKGLEWVSGIYPSGGRTVYADSVKGRFTISRDNSKNTLYLQMNSLRAEDTAMYYCARGPHYYDSPGAFDIWGQGTMVTVSS
modifications: Synthetically generated oligonucleotide
B9: M0038-D06: Fab that binds human MMP-14; DNA LV SEQ ID NO: 54, HV SEQ ID NO: 55 (antibody, V domains shown)
VL: B7 VL with N32S, G101Q, K104R, V105L
VH: EVQLLESGGGLVQPGGSLRLSCAASGFTFSWYYMGWVRQAPGKGLEWVSYIGSSGGMTGYADSVKGRFTISRDNSKNTLYLQMNSLRAEDTATYYCAMVGFLPTVDYWGQGTLVTVSS
modifications: Synthetically generated oligonucleotide
B10: M0037-H09: Fab that binds human MMP-14; DNA LV SEQ ID NO: 46, HV SEQ ID NO: 47 (antibody, V domains shown)
VL: QDIQMTQSPLSLPVTPGEPASISCRSSQSLLHGNGNNYLDWYLQKPGQSPQLLIYLGSNRASGVPDRFSGSGSGTDFTLKISSVEAEDVGVYYCMQGLQTPHTFGQGTQLEIK
VH: EVQLLESGGGLVQPGGSLRLSCAASGFTFSRYWMDWVRQAPGKGLEWVSSIRSSGGMTGYADSVKGRFTISRDNSKNTLYLQMNSLRAEDTAVYYCARHRTGRGAFDIWGQGTTVTVSS
modifications: Synthetically generated oligonucleotide
B11: M0036-F02: Fab that binds human MMP-14; DNA LV SEQ ID NO: 32, HV SEQ ID NO: 33 (antibody, V domains shown)
VL: QYELTQPPSLSVSPGQTASITCSGEKLGEKFASWYQRRPGQSPLLIIYQDNKRPSGIPERFSGSNSGNTAALTITGTQAMDDADYYCQAWESTTAVFGGGTKLTVL
VH: EVQLLESGGGLVQPGGSLRLSCAASGFTFSRYTMGWVRQAPGKGLEWVSRIYSSGGNTVYADSVKGRFTISRDNSKNTLYLQMNSLRAEDTATYYCARTRRDGYNPFDYWGQGTLVTVSS
modifications: Synthetically generated oligonucleotide

Positions count from the first letter of the chain named.

The values that follow come from patent US8106168B2, “Metalloproteinase binding proteins” (Dyax Corp., priority 2005, dated 2012).

The target in this assay is MMP-14 (Homo sapiens, UniProt P50281). The experiment in a line: Selection and phage ELISA screening of anti-MMP-14 Fabs. It is filed as binding. The following applies: Fab from FAB310 phage display library. How it is done:
Strategy I: A 100-fold excess of the FAB310 library (e.g., an amount of the library that should contain 100 copies of each library member) was depleted of streptavidin-binding antibodies by incubating the library with 200 μL of streptavidin beads for 1 hour at room temperature (RT) with rotation. 500 nM of biotinylated MMP-14 was coupled to streptavidin beads by incubation with 100 μL of streptavidin beads. The MMP-14 beads were then incubated with the streptavidin-depleted library for 1 hour at RT with rotation. The beads were then rinsed three times with 2% MTRIS/0.1% Tween, transferred to a fresh tube and washed an additional three times with 2% MTRIS/0.1% Tween, and transferred to a fresh tube and washed a final time with Round 1 TRIS buffer (50 mM TRIS; 50 mM CaCl2; 150 mM NaCl, pH 7.5).
MMP-14 binding antibodies were eluted from the beads by re-suspension in 1 mL 2% MTRIS containing 2.5 μM TIMP-2 and incubation for 1 hour at RT with rotation. The beads were then washed three times with 2% MTRIS/0.1% Tween, transferred to a fresh tube and washed three times with TRIS/0.1% Tween, and transferred to a fresh tube and washed a final time with TRIS. 1 mL output was used for infection of 9 mL TG1 bacteria (grown to OD600=0.5). The beads were further eluted by suspension in 1 mL 100 mM TEA for 10 minutes. The supernatant was neutralized with 500 μl TRIS/HCl pH 7.5. 1 mL of the second elution was used for infection of 9 mL TG1 bacteria (grown to OD600=0.5).
Two additional rounds of selection were carried out under the same conditions as the first round, except that the streptavidin beads were loaded with 100 nM biotinylated MMP-14 and the number of washes were doubled (6 times with 2% MTRIS/0.1% Tween, 6 times with TRIS/0.1% Tween and 2 times with TRIS), and Round 2/3 Tris buffer (50 mM TRIS; 5 mM CaCl2; 150 mM NaCl pH=7.5) was used for incubation and wash.
TIMP-2 was coupled to carboxylic beads, then complexed with a combination of biotinylated MMP-14 (500 nM each). The complexed beads were incubated with a 100 fold excess of FAB310 library that had been previously depleted by incubation with streptavidin beads and carboxylic beads. Elution/washing was carried out as for Strategy I.
Two additional rounds of selection were carried out, essentially as described for Strategy I, except that only 100 nM of each of MMP-14 were used in the bead complexes.
384-well plates were coated with biotinylated BSA (2 μg/ml in 50 mM TRIS; 5 mM CaCl2; 150 mM NaCl, pH 7.5), then washed 3 times with 50 mM TRIS; 5 mM CaCl2; 150 mM NaCl, pH 7.5; 0.1% Tween. Streptavidin was captured on the coated plates by incubation with 10 μg/mL streptavidin in 50 mM TRIS; 5 mM CaCl2; 150 mM NaCl pH 7.5; 0.5% Gelatin, followed by a wash with 50 mM TRIS; 5 mM CaCl2; 150 mM NaCl pH=7.5; 0.1% Tween. On the day the assay was to be performed, biotinylated MMP-14 (1 μg/ml) was captured in 50 mM TRIS; 5 mM CaCl2; 150 mM NaCl, pH 7.5.
95 clones were picked from each of Round 2 and Round 3 of each selection strategy, producing 12 masterplates. ELISA was run on the MiniTrak-5 deck according to SOP.
For orientation: In an ELISA, binding on a coated surface is turned into a signal by an enzyme label.
For B1, the “bind to human MMP-14” value is recorded as “bind to human MMP-14”.

On to B2, for which the “bind to human MMP-14” value is “bind to human MMP-14”.

Turning to B3, the “bind to human MMP-14” value was “bind to human MMP-14”.

With B4, the “bind to human MMP-14” value is “bind to human MMP-14”.

With B5, the “bind to human MMP-14” value is reported as “bind to human MMP-14”.

B6: the “bind to human MMP-14” value is reported as “bind to human MMP-14”.

With B7, the “bind to human MMP-14” value is given as “bind to human MMP-14”.

On to B8, for which the “bind to human MMP-14” value is listed as “bind to human MMP-14”.

Regarding B9, the “bind to human MMP-14” value was “bind to human MMP-14”.

Regarding B10, the “bind to human MMP-14” value is reported as “bind to human MMP-14”.

For the molecule B11, the “bind to human MMP-14” value is “bind to human MMP-14”.
